This is an account of results in patent publication US20060134087A1, “ITI-D1 Kunitz domain mutants as hNE inhibitors” (Dyax Corp., priority 1988, published 2006).

Broadly, the Ki is the dissociation constant of the complex between target and ligand, obtained from inhibition or displacement.

Experiment [1] deals with T1, agarose-immobilized hNE beads (Homo sapiens, UniProt P08246).
T1 sequence (P08246 30-267): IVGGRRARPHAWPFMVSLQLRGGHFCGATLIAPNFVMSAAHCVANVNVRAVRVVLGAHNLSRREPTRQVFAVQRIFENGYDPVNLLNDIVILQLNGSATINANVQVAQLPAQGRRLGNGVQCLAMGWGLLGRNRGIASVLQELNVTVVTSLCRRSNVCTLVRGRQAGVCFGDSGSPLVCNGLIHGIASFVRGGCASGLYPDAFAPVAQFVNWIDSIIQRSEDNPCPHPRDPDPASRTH
Kind of experiment: pH fractionation of display phage on agarose-immobilized hNE beads. Type of experiment: binding. The conditions noted are these: range of the affinity class. From the text:
For the purpose of simultaneously assessing the affinity of a large number of different BPTI and ITI-D1 muteins, DNA sequences encoding the BPTI or ITI-D1 was incorporated into the genome of the bacteriophage M13. […] Alterations in the KuDom amino acid sequence were introduced. Each pure population of phage displaying a particular KuDom was characterized with regard to its interactions with immobilized hNE or hCG. Based on comparison to the pH elution profiles of phage displaying other KuDoms of known affinities for the particular protease, mutant KuDoms having high affinity for the target proteases were identified. Subsequently, the sequences of these mutant KuDoms were determined (typically by sequencing the corresponding DNA sequence).
To test if phage displaying the ITI-D1::III fusion protein interact strongly with the proteases human neutrophil elastase (hNE), aliquots of display phage were incubated with agarose-immobilized hNE beads (“hNE beads”). The beads were washed and bound phage eluted by pH fractionation as described in U.S. Pat. No. 5,223,409. The pHs used in the step gradient were 7.0, 6.0, 5.5, 5.0, 4.5, 4.0, 3.5, 3.0, 2.5, and 2.0. Following elution and neutralization, the various input, wash, and pH elution fractions were titered. Phage displaying ITI-D1 were compared to phage that display EpiNE-7.
To test if ITI-D1E7-display phage bind hNE beads, pH elution profiles were measured. Aliquots of EpiNE-7, MA-ITI-D1, and MA-ITI-D1E7 display phage were incubated with hNE beads for three hours at room temperature (RT). The beads were washed and phage were eluted as described in U.S. Pat. No. 5,223,409, except that only three pH elutions were performed. […] The pH elution profile of EpiNE-7 display phage is as described. MA-ITI-D1E7 phage show a broad elution maximum around pH 5. The total fraction of MA-ITI-D1E7 phage obtained on pH elution from hNE beads was about 40-fold less than that obtained using EpiNE-7 display phage.
We characterized the binding properties to hNE-beads of MA-BITI and MA-BITI-E7 display phage using the extended pH fractionation procedure described in U.S. Pat. No. 5,223,409.
The binding capacity of hNE-beads for display phage varies among preparations of beads and with age for each individual preparation of beads. Thus, it is difficult to directly compare absolute yields of phage from elutions performed at different times. For example, the fraction of MA-EpiNE7 display phage recovered from hNE-beads varies two-fold among the experiments shown in Tables 14, 16, and 17. However, the shapes of the pH elution profiles are similar. It is possible to correct somewhat for variations in binding capacity of hNE-beads by normalizing display phage yields to the total yield of MA-EpiNE7 phage recovered from the beads in a concurrent elution. When the data shown in Tables 14, 16, and 17 are so normalized, the recoveries of display phage, relative to recovered MA-EpiNE7, are shown in Table 3.
ITI-D1 derivative BITI-E7-1222 is BITI-E7 with the alteration A11T. ITI-D1 derivative BITI-E7-141 is BITI-E7 with the alterations E31Q and Q34V; phage that display the presence of these proteins are MA-BITI-E7-1222 and MA-BITI-E7-141. We determined the binding properties to hNE-beads of MA-BITI-E7-1222 and MA-BITI-E7-141 display phage using the extended pH fractionation protocol described previously. The results are in Tables 18 (for MA-BITI-E7 and MA-BITI-E7-1222) and 19 (for MA-EpiNE7 and MA-BITI-E7-141). The pH elution profiles for the MA-BITI-E7 and MA-BITI-E7-1222 phage are almost identical.
Total pfu applied to the beads are in column two. The fractions of this input pfu recovered in each pH fraction of the abbreviated pH elution protocol (pH 7.0, pH 3.5, and pH 2.0) are in the next three columns. […]

A further experiment has as its system chymotrypsin. The conditions noted are these: literature; cited from earlier work.
The subject of a further experiment is trypsin. The conditions noted are these: literature; cited from earlier work.
In experiment [2] the target is T2, human neutrophil elastase (hNE) (Homo sapiens, UniProt P08246).
T2 sequence (P08246 30-267): T1 sequence (P08246 30-267)
The conditions noted are these: ALBR83a,b, ODOM90, cited from earlier work.

For another experiment, the target named is plasmin (Homo sapiens, UniProt P00747). The conditions noted are these: literature; cited from earlier work.

Where two headings read alike, the source gives them in different places. Ends that are not written are not given here.

Sequence of plasmin (P00747 581-810 limits assumed, species assumed): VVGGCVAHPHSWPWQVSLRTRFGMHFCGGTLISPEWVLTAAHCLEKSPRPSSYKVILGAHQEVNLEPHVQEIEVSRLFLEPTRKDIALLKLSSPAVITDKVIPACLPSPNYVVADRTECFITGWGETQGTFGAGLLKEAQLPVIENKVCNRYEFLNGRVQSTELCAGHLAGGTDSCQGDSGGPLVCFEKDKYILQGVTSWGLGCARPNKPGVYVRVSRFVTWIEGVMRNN
Sequence of plasmin (P00747 97-580 partner limits assumed, species assumed): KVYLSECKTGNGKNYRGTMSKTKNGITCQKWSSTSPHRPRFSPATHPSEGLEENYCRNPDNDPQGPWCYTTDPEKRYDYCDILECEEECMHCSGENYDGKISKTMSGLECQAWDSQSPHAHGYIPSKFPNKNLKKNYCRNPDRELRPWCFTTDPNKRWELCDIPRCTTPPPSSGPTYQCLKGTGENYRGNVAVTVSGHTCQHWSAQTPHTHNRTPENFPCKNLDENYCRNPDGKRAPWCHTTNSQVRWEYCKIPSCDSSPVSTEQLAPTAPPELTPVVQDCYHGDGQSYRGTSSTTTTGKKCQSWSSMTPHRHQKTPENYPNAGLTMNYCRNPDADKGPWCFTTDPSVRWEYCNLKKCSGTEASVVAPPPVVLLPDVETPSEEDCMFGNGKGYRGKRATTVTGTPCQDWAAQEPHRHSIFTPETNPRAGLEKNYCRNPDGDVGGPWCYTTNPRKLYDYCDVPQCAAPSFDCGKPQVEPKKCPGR

As for “ITI-D1: first Kunitz domain of human inter-α-trypsin inhibitor light chain, SEQ ID NO 016 (KEDSCQLGYSAGPCMGMTSRYFYNGTSMACETFQYGGCMGNGNNFVTEKDCLQTCRTV; disulfide (positions not given here); also: disulfides drawn as lines in table, pairing not given here)”, in experiment [1], the “Fraction of Input bound” value is below 0.005% and the “pH Elution Maximum” value is reported as above 6.0 pH. Moreover, in the experiment with chymotrypsin, the affinity for chymotrypsin entry is on record as “lacks affinity”. Further, the “affinity for / inhibition of trypsin” value with trypsin is “lacks affinity”. In experiment [2] (read-out: Ki for leukocyte elastase, lower limit), the Ki is above 0.001 µM. Besides, the Ki in experiment [2] (read-out: Ki for leukocyte elastase, upper limit) is below 1 µM. Moreover, in the experiment with plasmin, the affinity for plasmin result was “lacks affinity”.
